{"source": "patent US20210214734A1", "about": "“METHODS FOR SELECTIVELY INHIBITING MOLECULAR CHAPERONE CLIENTS AND COMPOSITIONS FOR USE THEREOF” (Research Foundation for the State University of New York, priority 2020, published 2021)", "molecules": {"B1": {"name": "B-Raf-01 (peptide)", "peptide": "GYSTKPQLAGGGNVTAPTPQG[Phe(4-F)]QHSGS", "notes": "also called Braf01-pep"}, "B2": {"name": "A01 (peptide)", "peptide": "LGGGQ[Phe(4-F)]GEVYGGVAVKTLGGGEFLDEAAVMK", "notes": "also called peptide A01; Abl01"}, "B3": {"name": "B-Raf-02 (peptide)", "peptide": "FGTVYKGKWGGGG[Phe(4-F)]STKPQLAGGGNVTAPTPQ", "notes": "also called Braf02-pep"}, "B4": {"name": "A02 (peptide)", "peptide": "[Phe(4-F)]GGSPYPGIDLSQVYELLEK", "notes": "also called peptide A02; Abl02"}}, "key": {"[1]": {"target": "Human Serum Albumin (HSA) (Homo sapiens, UniProt P02768)", "test": "19F NMR control for non-specific binding to HSA", "settings": "40 mM A01, A02 with 10 mM HSA", "protocol": "(§1) All the NMR experiments have been recorded at 298° K with a Bruker FT NMR Avance III 600-MHz spectrometer equipped with a 5-mm CryoProbe™ QCI^1H/^19F-^13C/^15N-D quadruple resonance, a shielded z-gradient coil, and the automatic sample handling system such as a SAMPLEJET™ brand sampling system with temperature control.\n(§2) ^19F NMR experiments are a well-recognized approach to study the interaction between small molecules or peptides and proteins. […] This is due to the large dynamic range defined as the difference of the NMR measured response in the free and protein-bound states. ^19F R2 filter NMR experiments are among the most sensitive techniques for weak binding detection. See Dalvit et al., Journal of American Chemical Society, 125, 7696-7703 (2003). The transverse relaxation rate R2 is a very sensitive parameter for these studies, due to the large Chemical Shift Anisotropy (CSA) of ^19F nucleus and to the large exchange contribution See Dalvit et al., Journal of American Chemical Society, 125, 7696-7703 (2003); the compounds/peptides that interact with the receptor will show a broadening and intensity reduction in their ^19F NMR signal in presence of the protein\n(§3) The 5 mM stock solution peptides were prepared in 100% in DMSOd6. Solubility and purity of the peptides in PBS buffer pH 7.4, 10% D2O (for the lock signal) were checked by ^19F and ^1H NMR spectroscopy. 1D ^19F NMR experiments were recorded with proton decoupling with the Waltz-16 scheme during the acquisition period with an acquisition time of 0.95 s, a relaxation delay of 30 s. whereas 1D version of the NOESY (nuclear Overhauser effect spectroscopy) pulse sequence with H2O signal presaturation, a mixing time of 10 ms and a relaxation delay of 30 s was used for ^1H NMR experiments.\n(§4) For the binding studies R2 filter experiments were recorded with the Carr-Purcell-Meibom-Gill scheme with a time interval of 23.5 ms between the 180° pulses with a loop of 2, an acquisition time of 0.95 s a D1 of 5 s and a number of scans of 512. All the ^19F chemical shifts are referenced to the CFCl3 signal in water."}, "Cdc37": {"target": "T1, Cdc37 (Homo sapiens, UniProt Q16543)", "T1 sequence (Q16543 1-378)": "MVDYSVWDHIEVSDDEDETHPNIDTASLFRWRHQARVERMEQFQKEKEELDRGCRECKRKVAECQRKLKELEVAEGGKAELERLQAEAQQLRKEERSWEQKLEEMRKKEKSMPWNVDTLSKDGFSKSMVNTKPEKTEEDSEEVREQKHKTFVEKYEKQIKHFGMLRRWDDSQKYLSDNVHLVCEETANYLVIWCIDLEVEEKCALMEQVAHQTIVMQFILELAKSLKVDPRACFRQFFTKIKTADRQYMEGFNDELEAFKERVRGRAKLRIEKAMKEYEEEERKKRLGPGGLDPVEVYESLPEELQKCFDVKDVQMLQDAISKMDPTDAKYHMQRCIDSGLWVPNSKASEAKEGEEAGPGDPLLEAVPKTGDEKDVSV", "test": "19F NMR R2 filter binding to Cdc37", "set-up": "dose or concentration left out as unconfirmed", "protocol": "as §1, §2, §3, §4"}, "full length human Hsp90": {"test_system": "full length human Hsp90", "test": "19F NMR R2 filter binding to Hsp90", "set-up": "19F NMR signal change in presence of Hsp90 (binding): dose or concentration left out as unconfirmed", "settings": "for 19F NMR signal change in presence of Hsp90 (binding): 19F R2 filter, peptides tested individually, A01", "protocol": "as §1, §2, §3, §4"}, "c-Src": {"test_system": "c-Src", "test": "Immunoblot of unrelated client c-Src in HEK293 cells", "format": "cell-based, human", "settings": "10 μM, 36 hours, selectivity control", "protocol": "(§5) Human embryonic kidney (HEK293) and 786-O cells were acquired from the American Type Culture Collection (ATCC). HEK293 cells were grown in Dulbecco's Modified Eagle Medium (DMEM, Millipore-Sigma) and 786-O cells were grown in Roswell Park Memorial Institute (RPMI-1640, Millipore-Sigma) medium supplemented with 10% fetal bovine serum (FBS, Millipore-Sigma) in a CellQ incubator (Panasonic Healthcare) at 37° C. in 5% CO2.\n(§6) Cultured cells were seeded 24 h prior to treatment. […]\n(§7) Protein extraction from mammalian cells was carried out using methods previously described. See Woodford et al., Cell Reports, 14, 872-884 (2016). For immunoprecipitation, protein lysates were incubated with Hsp90 antibody for 2 h followed by incubation with protein G agarose (Qiagen) for 2 h at 4° C. Immunopellets were washed 4 times with fresh lysis buffer (20 mM Tris (pH7.4), 100 mM NaCl, 1 mM MgCl2, 0.1% NP40, protease inhibitor cocktail (Roche), and PhosSTOP (Roche)) and eluted with 5× Laemmli buffer. Precipitated proteins were separated by SDS-PAGE and transferred to nitrocellulose membranes. Co-immunoprecipitated proteins were detected by immunoblotting with the indicated antibodies, diluted in 5% non-fat dry milk reconstituted in TBST."}, "Hsp90α-FLAG": {"target": "Hsp90α-FLAG (Homo sapiens, UniProt P07900)", "test": "Biotinylated peptide streptavidin pulldown of Hsp90α", "format": "binding", "protocol": "(§8) Total cell lysates prepared as described above were incubated with the indicated amounts of biotinylated peptide at 4° C. for 1 h. Streptavidin agarose beads (ThermoScientific) were added and incubated 1 additional hour with gentle rotation. Bound Hsp90 was detected by immunoblotting as described herein."}, "Cdk4": {"test_system": "Cdk4", "test": "Immunoblot of unrelated client Cdk4 in HEK293 cells", "format": "cell-based, human", "settings": "10 μM, 36 hours, selectivity control", "protocol": "as §5, §6, §7"}, "c-Abl-Hsp90 interaction": {"test_system": "c-Abl-Hsp90 interaction", "test": "Hsp90 immunoprecipitation, c-Abl association in HEK293 cells", "format": "cell-based, human", "settings": "10 μM, 36 hours, IP of endogenous Hsp90", "protocol": "as §5, §6, §7"}, "c-Abl": {"test_system": "c-Abl", "test": "c-Abl protein level by immunoblot in treated HEK293 cells", "format": "cell-based, human", "settings": "10 μM A01 or A02 with and without TAT, 36 hours", "protocol": "as §5, §6, §7"}, "Aha1 [2]": {"target": "Aha1 (Homo sapiens, UniProt O95433)", "sequence (O95433 whole entry, species assumed)": "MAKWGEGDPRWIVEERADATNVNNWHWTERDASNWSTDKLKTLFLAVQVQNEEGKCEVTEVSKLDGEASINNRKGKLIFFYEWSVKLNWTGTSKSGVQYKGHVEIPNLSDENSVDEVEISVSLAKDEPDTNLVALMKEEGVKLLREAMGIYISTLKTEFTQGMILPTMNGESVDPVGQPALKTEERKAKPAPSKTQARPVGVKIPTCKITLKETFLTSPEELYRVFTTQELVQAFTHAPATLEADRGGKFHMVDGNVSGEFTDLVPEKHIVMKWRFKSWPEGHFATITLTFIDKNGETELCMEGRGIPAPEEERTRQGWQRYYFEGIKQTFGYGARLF", "test": "19F NMR R2 filter binding to Aha1", "settings": "cAbl peptides at 10 mM", "protocol": "as §1\n^19F NMR experiments are a well-recognized approach to study the interaction between small molecules or peptides and proteins. […] This is due to the large dynamic range defined as the difference of the NMR measured response in the free and protein-bound states. ^19F R2 filter NMR experiments are among the most sensitive techniques for weak binding detection. […]\nas §3, with “Solubility and purity of the peptides in PBS buffer pH 7.4, 10% D2O (for the lock signal) were checked by ^19F and ^1H NMR spectroscopy.” left out\nFor the binding studies R2 filter experiments were recorded with the Carr-Purcell-Meibom-Gill scheme with a time interval of 23.5 ms between the 180° pulses with a loop of 2, an acquisition time of 0.95 s a D1 of 5 s and a number of scans of 512. […]"}, "Akt": {"test_system": "Akt", "test": "Immunoblot of unrelated client Akt in HEK293 cells", "format": "cell-based, human", "settings": "10 μM, 36 hours, selectivity control", "protocol": "as §5, §6, §7"}, "Hsp90β-FLAG": {"target": "Hsp90β-FLAG (Homo sapiens, UniProt P08238)", "sequence (P08238 whole entry)": "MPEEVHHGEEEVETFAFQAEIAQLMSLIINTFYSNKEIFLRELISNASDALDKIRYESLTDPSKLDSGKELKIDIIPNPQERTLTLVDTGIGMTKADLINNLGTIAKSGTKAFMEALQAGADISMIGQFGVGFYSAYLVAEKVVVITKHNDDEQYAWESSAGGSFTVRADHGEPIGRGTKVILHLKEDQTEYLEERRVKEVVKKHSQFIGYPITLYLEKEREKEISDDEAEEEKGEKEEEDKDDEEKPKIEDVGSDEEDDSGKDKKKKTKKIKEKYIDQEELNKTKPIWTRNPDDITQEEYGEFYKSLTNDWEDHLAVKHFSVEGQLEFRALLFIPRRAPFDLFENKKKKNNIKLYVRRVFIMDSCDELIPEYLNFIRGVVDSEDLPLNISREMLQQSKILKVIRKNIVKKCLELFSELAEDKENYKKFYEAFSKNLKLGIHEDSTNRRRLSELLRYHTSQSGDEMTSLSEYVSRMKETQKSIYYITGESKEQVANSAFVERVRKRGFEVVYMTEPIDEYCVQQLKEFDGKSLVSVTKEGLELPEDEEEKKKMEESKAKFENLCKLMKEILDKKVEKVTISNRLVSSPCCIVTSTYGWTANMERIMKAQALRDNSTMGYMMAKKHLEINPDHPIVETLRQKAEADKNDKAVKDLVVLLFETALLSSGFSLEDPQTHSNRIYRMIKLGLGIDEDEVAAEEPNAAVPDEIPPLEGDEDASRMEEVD", "test": "Biotinylated peptide streptavidin pulldown of Hsp90β", "format": "binding", "settings": "lysate of HEK293 overexpressing Hsp90β-FLAG", "protocol": "as §8"}, "Aha1-Hsp90 complex": {"test_system": "Aha1-Hsp90 complex", "test": "Hsp90 immunoprecipitation, Aha1-Hsp90 complex in HEK293 cells", "format": "cell-based, human", "settings": "10 μM, 36 hours", "protocol": "as §5, §6, §7"}, "Human Serum Albumin": {"target": "T2, Human Serum Albumin (human, UniProt P02768 25-609)", "T2 construct": "also called HSA", "test": "19F NMR"}, "Aha1 [3]": {"target": "T3, Aha1 (UniProt O95433 1-338, limits assumed)", "T3 construct": "Protein used in the 19F NMR experiments", "T3 sequence (O95433 whole entry)": "as the sequence (O95433 whole entry, species assumed) above", "test": "19F NMR R2 filter"}}, "note": "Where no end group is shown, it is not given here. [ ]: non-standard residue; d: D form. Phe(4-F) = N[C@@H](Cc1ccc(F)cc1)C(=O)O", "data": [{"molecule": "FGTVYKGKWGGGGF(F)STKPQLAGGGNVTAPTPQ (FGTVYKGKWGGGG[Phe(4-F)]STKPQLAGGGNVTAPTPQ) [B-Raf-02]", "values": [{"measurement": "binding interaction with HSA by 19F NMR", "setting": "[1]", "result": "no interactions were detected"}, {"measurement": "binding interaction with HSA by 19F NMR", "setting": "[1]; listed as Braf02-pep", "result": "do not interact with HSA"}, {"measurement": "binding to Cdc37 by 19F NMR", "setting": "Cdc37", "result": "bound to Cdc37"}, {"measurement": "19F NMR signal change in presence of Hsp90 (binding)", "setting": "full length human Hsp90", "result": "no or very weak interaction"}]}, {"molecule": "LGGGQF(F)GEVYGGVAVKTLGGGEFLDEAAVMK (LGGGQ[Phe(4-F)]GEVYGGVAVKTLGGGEFLDEAAVMK) [A01, F(F) = 4-Fluoro-L-phenylalanine]", "values": [{"measurement": "c-Src stability or activity", "setting": "c-Src", "result": "neither the related kinase c-Src nor the client kinases Cdk4 or Akt showed a defect in stability or activity"}, {"measurement": "binding interaction with HSA by 19F NMR", "setting": "[1]", "result": "neither A01 nor A02 showed binding interaction with HSA"}, {"measurement": "binding interaction with HSA by 19F NMR", "setting": "[1]; listed as AblO1", "result": "do not interact with HSA"}, {"measurement": "binding to Cdc37 by 19F NMR", "setting": "Cdc37", "result": "showed the ability to bind Cdc37"}, {"measurement": "Hsp90 isoform specificity", "setting": "Hsp90α-FLAG; Hsp90α vs Hsp90β, biotinylated peptide pulldown", "result": "neither peptide demonstrates isoform specificity"}, {"measurement": "binding to Hsp90α in pulldown", "setting": "Hsp90α-FLAG; biotinylated peptide, lysate of HEK293 overexpressing Hsp90α-FLAG", "result": "binds with higher affinity to both isoforms of Hsp90"}, {"measurement": "Cdk4 stability or activity", "setting": "Cdk4", "result": "neither the related kinase c-Src nor the client kinases Cdk4 or Akt showed a defect in stability or activity"}, {"measurement": "binding to Hsp90 when A01 and A02 are mixed", "setting": "full length human Hsp90; 19F NMR, peptides mixed", "result": "continue to bind to Hsp90 even when they are mixed"}, {"measurement": "19F NMR signal change in presence of Hsp90 (binding)", "setting": "full length human Hsp90", "result": "decrease in the presence of Hsp90, indicating peptide-protein binding"}, {"measurement": "dissociation of c-Abl from Hsp90", "setting": "c-Abl-Hsp90 interaction", "result": "dissociation of c-Abl from Hsp90"}, {"measurement": "c-Abl protein levels", "setting": "c-Abl", "result": "decrease of c-Abl protein levels"}, {"measurement": "binding to Aha1 by 19F NMR", "setting": "Aha1 [2]", "result": "but not Aha1"}, {"measurement": "Akt stability or activity", "setting": "Akt", "result": "neither the related kinase c-Src nor the client kinases Cdk4 or Akt showed a defect in stability or activity"}, {"measurement": "binding to Hsp90β in pulldown", "setting": "Hsp90β-FLAG", "result": "binds with higher affinity to both isoforms of Hsp90"}, {"measurement": "Aha1-Hsp90 complex formation", "setting": "Aha1-Hsp90 complex", "result": "decreased Aha1-Hsp90 complex formation"}]}, {"molecule": "B1", "values": [{"measurement": "binding result", "setting": "Human Serum Albumin", "result": "no binding"}]}, {"molecule": "B2", "values": [{"measurement": "binding result", "setting": "Human Serum Albumin", "result": "no binding (tested: 40 mM A01 with 10 mM HSA)"}, {"measurement": "binding result", "setting": "Aha1 [3]", "result": "no binding (tested: 10 mM of each cAbl peptide)"}]}, {"molecule": "B3", "values": [{"measurement": "binding result", "setting": "Human Serum Albumin", "result": "no binding"}]}, {"molecule": "B4", "values": [{"measurement": "binding result", "setting": "Human Serum Albumin", "result": "no binding (tested: 40 mM A02 with 10 mM HSA)"}]}]}
